Measured values published in patent USRE39034E1, “Molecule involved in binding of sperm to egg surfaces and procedures for use of this molecule to enhance or decrease potential fertility” (The Penn State Research Foundation, priority 1996, dated 2006).

B1: saposin D: human saposin produced by proteolytic cleavage of prosaposin (protein, UniProt P07602 405-486, looked up)
Saposin-D: DGGFCEVCKKLVGYLDRNLEKNSTKQEILAALEKGCSFLPDPYQKQCDQFVAEYEPVLIEILVEVMDPSFVCLKIGACPSAH
modifications: Saposin-D
notes: human saposin produced by proteolytic cleavage of prosaposin
B2: saposin A: human saposin produced by proteolytic cleavage of prosaposin (protein, UniProt P07602 60-142, looked up)
Saposin-A: SLPCDICKDVVTAAGDMLKDNATEEEILVYLEKTCDWLPKPNMSASCKEIVDSYLPVILDIIKGEMSRPGEVCSALNLCESLQ
modifications: Saposin-A
notes: as for B1
B3: saposin C: human saposin produced by proteolytic cleavage of prosaposin (protein, UniProt P07602 311-390, looked up)
Saposin-C: SDVYCEVCEFLVKEVTKLIDNNKTEKEILDAFDKMCSKLPKSLSEECQEVVDTYGSSILSILLEEVSPELVCSMLHLCSG
modifications: Saposin-C
notes: as for B1
B4: human saposin B: human saposin produced by proteolytic cleavage of prosaposin (protein, UniProt P07602 195-273, looked up)
Saposin-B: GDVCQDCIQMVTDIQTAVRTNSTFVQALVEHVKEECDRLGPGMADICKNYISQYSEIAIQMMMHMQPKEICALVGFCDE
modifications: Saposin-B
notes: as for B1

Tested on: frozen-thawed rooster sperm
Test: Restoration of binding capability of frozen-thawed rooster sperm to hen's egg membrane extract (Examples 1, 2, 6, 7)
Format: cell-based
Settings: FIG. 2
Text: Although the invention has been described generally above, particular examples give additional illustration of the products and method steps typical of the present polypeptide and uses thereof. The data presented in FIGS. 1 to 3 and 6 to 9 show the number of sperm bound per unit area of laid hen's egg perivitelline membrane, or data derived from such binding, or bound to a substrate prepared using an extract from such perivitelline membranes pursuant to the method disclosed in co-pending patent application Ser. No. 08/234,448. Except when noted, native protein extracted from rooster sperm with UPSEBP activity was used.
Freshly collected rooster sperm were cryopreserved, thawed and processed to remove glycerol. One portion of the thawed sperm received crude UPSEBP at a concentration of 2 μg protein per 10^6 sperm. Samples containing 1-10×10^6 sperm were placed into wells coated with an extract of hen's egg membrane and incubated 180 minutes. Non-bound sperm were removed by washing, and bound sperm were stained with diamido-2-phenylindole and counted using an epifluorescent microscope.
Rooster sperm subjected to a cryopreservation cycle were treated with increasing amounts of partially purified UPSEBP and subject to a standard binding assay, together with aliquots of unfrozen (fresh) sperm.
Frozen-thawed turkey sperm were exposed to rooster UPSEBP or semi-purified SGP-1.

Molecule	Restoration of binding (in words)	Binding restored, percent of that obtained by exposure to UPSEBP (UPSEBP 2 μg/million sperm)
B1	ineffective at restoring binding	
B2	ineffective at restoring binding	
B3	ineffective at restoring binding	
B4		about 70%
